A word on the Kd: it is the concentration at which binding is half-saturated. As usually defined, the koff is the first-order rate constant of dissociation. One may read the kon as a measure of how fast the partners come together.

“Also recorded” adds a separate entry of the source.

In test [1] the test system is polarized colon cancer T84 cells. The experiment in a line: Transepithelial electrical resistance (TEER) permeability assay. It counts as cell-based. Particulars: for Effect on TEER: 5 μg dimeric Ad3 fiber knob added 1 hour to apical chamber. On the procedure: (§1) FIG. 5. Correlation of reduced DSG2 binding with the ability to open epithelial junctions. A) Transepithelial electrical resistance (TEER) measured on polarized colon cancer T84 cells. Cells were cultured in transwell chambers until the TEER was constant, i.e. tight junctions had formed. A total of 5 μg of dimeric Ad3 fiber knobs in PBS was then added for 1 hour to the apical chamber. TEER was measured at the indicated time points. N=6. For time points 1.5 and 4 hours the difference between JO-1 vs D261N and N186D was significant (p<0.01). The arrows indicate the addition and removal of Ad3 fiber knobs. B) Enhancement of irinotecan therapy. A total of 4×10^6 A549 cells were injected subcutaneously into CB17-SCID/beige mice. Once the tumor reached a volume of ˜100 mm^3 (day 15 after implantation), the mice were injected intravenously with 2 mg/kg JO-1, E299V, N186D, or PBS, followed by an intravenous injection of irinotecan (37.5 mg/kg) one hour later. The treatment was repeated on day 25. N=5. […] The difference between “irinotecan” vs “JO-1+irinotecan” was significant (p<0.01) from day 20 on.
FIG. 9. Analysis of dimeric Ad3 fiber knob mutants with increased affinity to DSG2. A) Competition of Ad3-GFP virus infection on HeLa cells with dimeric affinity-enhanced mutant Y250F and JO-1 (dimeric wt Ad3 fiber knob). The experimental setting is as described for FIG. 3C. left panel: percentage of GFP positive cells. Right panel: mean fluorescence intensity. N=3. The standard deviation was less than 10%. B) Competition of Ad3-GFP virus infection on HeLa cells by Ad3 knob mutants with enhanced DSG2 binding but without dimerization domain. 1.5×10^5 HeLa cells were seeded into 24 well plates. Cells were incubated with the Ad3 knob mutants at the increasing concentrations for one hour at room temperature. 100 pfu/cell of Ad3GFP virus were then added and GFP expression was analyzed 18 hours later. C) TEER on colon cancer T84 cells. The experimental setting was the same as for FIG. 5A. The TEER at 4 hours is shown. N=3.
A total of 5×10^5 T84 cells were seeded in 12 mm transwell inserts (PET membrane, with 0.4 μm pore size (Corning, N.Y.) and cultured for >14 days until transepithelial electrical resistance (TEER) was stable. Culture medium was changed every 2-3 days. The cells were exposed to DSG2 ligands (20 μg/ml) in adhesion medium (DMEM, 1% FBS, 2 mM MgCl2, 20 mM HEPES) for 15 min at room temperature and TEER was measured and calculated as described elsewhere (39).

The next test has as its system A549 xenograft tumors. The experiment in a line: Enhancement of irinotecan therapy in A549 xenograft tumors. It counts as in vivo, CB17-SCID/beige mice. The conditions noted are these: 2 mg/kg i.v. one hour before irinotecan 37.5 mg/kg i.v.; days 15 and 25; N=5. How it is done:
as §1
FIG. 10. Combination of affinity-enhanced JO-1 versions with chemotherapy. A) Enhancement of irinotecan (I) therapy. The experimental setting was the same as in FIG. 5B. […] N=5. […] Mammary fat pad tumors were established from primary ovarian cancer ovc316 cells. Treatment was started when tumors reached a volume of 100 mm^3 Mice were injected intravenously with 2 mg/kg JO-1 or with 0.5 mg/kg JO-4, followed by an intravenous injection of PEGylated liposomal doxorubicin (PLD) (1 mg/kg) one hour later. Treatment was repeated weekly. […] A total of 4×10^6 TNBC MDA-MB-231 cells were injected into the mammary fat pad of CB17 SCID-beige mice. JO-4 (2 mg/kg) was intravenously injected 1 hour before the application of cetuximab (C) (10 mg/kg, i.p.) and nab-paclitaxel (nab-P) (5 mg/kg, i.v). Treatment was given weekly. N=10 P<0.01 at day 25 for nab-P+C vs JO-4+nab-P+C.
A549, MDA-MB-231, and ovc316 xenograft tumors were established by injection of the corresponding tumor cells into the mammary fat pad (1:1 with Matrigel) of CB17 mice. TC1-DSG2 tumors were established by subcutaneous injection of TC1-DSG2 cells into DSG2 transgenic mice. JO-0, JO-1, JO-2, or JO-4 were intravenously injected one hour before the application of chemotherapeutic drugs: Irinotecan/Camptosar™ (Pfizer Inc., Groton, Conn.), PEGylated liposomal doxorubicin/Lipodox™ (Sun Pharmaceuticals IN, India), cetuximab/Erbitux™ (ImClone, Somerville, N.J.), nanoparticle albumin conjugated paclitaxel/Abraxane™ (Abraxis Biosciences, Summit N.J.). Tumor volumes were measured three times a week. Each treatment group consisted of a minimum of 5 mice.

A further test concerns the target T1, soluble CD46 (UniProt P15529 35-343).
T1 construct: also called sCD46
T1 sequence: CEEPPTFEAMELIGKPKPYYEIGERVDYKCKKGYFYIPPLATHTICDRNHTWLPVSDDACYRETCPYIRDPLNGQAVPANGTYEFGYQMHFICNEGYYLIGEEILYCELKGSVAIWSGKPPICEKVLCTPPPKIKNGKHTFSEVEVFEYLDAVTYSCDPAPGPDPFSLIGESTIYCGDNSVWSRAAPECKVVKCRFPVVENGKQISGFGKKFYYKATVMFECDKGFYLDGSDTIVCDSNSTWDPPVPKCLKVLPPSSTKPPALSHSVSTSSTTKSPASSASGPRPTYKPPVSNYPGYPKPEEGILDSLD
The experiment in a line: Western blot, soluble CD46 as probe, anti-CD46 mAb. Background: A western blot detects proteins with antibodies after separation by electrophoresis.

For test [2], the target named is T2, Recombinant human DSG2 protein (Leinco Technologies) (human, UniProt Q14126 50-609).
T2 construct: also called soluble DSG2; soluble recombinant DSG2
T2 sequence: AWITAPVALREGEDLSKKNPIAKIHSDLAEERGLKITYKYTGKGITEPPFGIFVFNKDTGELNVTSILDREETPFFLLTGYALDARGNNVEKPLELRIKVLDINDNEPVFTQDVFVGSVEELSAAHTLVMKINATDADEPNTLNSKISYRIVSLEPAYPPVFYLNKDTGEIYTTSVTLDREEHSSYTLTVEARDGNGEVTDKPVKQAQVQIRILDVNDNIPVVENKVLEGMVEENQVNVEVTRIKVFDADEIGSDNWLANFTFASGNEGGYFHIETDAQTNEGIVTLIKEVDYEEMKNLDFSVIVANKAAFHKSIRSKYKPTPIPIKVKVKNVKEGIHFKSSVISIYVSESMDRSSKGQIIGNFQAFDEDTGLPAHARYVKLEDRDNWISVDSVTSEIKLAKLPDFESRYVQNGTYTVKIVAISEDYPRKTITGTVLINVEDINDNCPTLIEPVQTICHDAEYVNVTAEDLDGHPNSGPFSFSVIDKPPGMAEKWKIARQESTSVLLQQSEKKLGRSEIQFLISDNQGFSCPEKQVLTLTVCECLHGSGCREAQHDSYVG
The experiment in a line: SPR (BIAcore 3000), DSG2 immobilised on the sensor chip, knobs injected at 2.5 to 10 µg/ml, BIAeval. On the technique in general: In SPR one partner is held on a chip, and binding of the other changes the refractive index at the surface.

Test [3] has as its target T2, Recombinant human DSG2 protein (Leinco …). The experiment in a line: SPR (BIAcore 3000), DSG2 immobilised on CM4 chip, knob injected.

B1: N186D (protein)
chain: MKVSALKEKVSALKEKVSALKEKVSALKEKVSALKEGSGGGSGGGSGGGSNSIALKNNTLWTGPKPEANCIIEYGKQNPDSKLTLILVKNGGIVNGYVTLMGASDYVNTLFKDKNVSINVELYFDATGHILPDSSSLKTDLELKYKQTADFSARGFMPSTTAYPFVLPNAGTHNENYIFGQCYYKASDGALFPLEVTVMLNKRLPDSRTSYVMTFLWSLNAGLAPETTQATLITSPFTFSYIREDD
On to B1, for which the “Effect on TEER” value in test [1] is on record as “intermediate effects”. Besides, the “Enhancement of irinotecan therapy” value with A549 xenograft tumors is “not significant”.

B2: JO-2: affinity enhanced version of JO-1; printed Y293D, Kd fits V239D; b41 links JO-2 to K217E/F224S (protein)
chain: MKVSALKEKVSALKEKVSALKEKVSALKEKVSALKEGSGGGSGGGSGGGSNSIALKNNTLWTGPKPEANCIIEYGKQNPDSKLTLILVKNGGIVNGYVTLMGASDYVNTLFKNKNVSINVELYFDATGHILPDSSSLKTDLELKYKQTADFSARGFMPSTTAYPFDLPNAGTHNENYIFGQCYYKASDGALFPLEVTVMLNKRLPDSRTSYVMTFLWSLNAGLAPETTQATLITSPFTFSYIREDD
For B2, the “TEER compared to JO-1” value in test [1] (dimeric affinity-enhanced mutants, TEER at 4 hours, N=3) is reported as “significantly higher”. In addition, the “Enhancement of irinotecan therapy” value in the test on A549 xenograft tumors is recorded as “increased irinotecan therapy significantly more than JO-1; also recorded: significant from day 20 on”.

B3: E299V (protein)
chain: MKVSALKEKVSALKEKVSALKEKVSALKEKVSALKEGSGGGSGGGSGGGSNSIALKNNTLWTGPKPEANCIIEYGKQNPDSKLTLILVKNGGIVNGYVTLMGASDYVNTLFKNKNVSINVELYFDATGHILPDSSSLKTDLELKYKQTADFSARGFMPSTTAYPFVLPNAGTHNENYIFGQCYYKASDGALFPLEVTVMLNKRLPDSRTSYVMTFLWSLNAGLAPVTTQATLITSPFTFSYIREDD
As to B3, in test [1], the “Effect on TEER” value is on record as “intermediate effects”. Moreover, the “Enhancement of irinotecan therapy” value with A549 xenograft tumors is “not significant”.

B4: Ad3-S6/Kn (ligand)
chain: GVLSLKCVNPLTTASGSLQLKVGSGLTVDTTDGSLEENIKVNTPLTKSNHSINLPIGNGLQIEQNKLCSKLGNGLTFDSSNSIALKNNTLWTGPKPEANCIIEYGKQNPDSKLTLILVKNGGIVNGYVTLMGASDYVNTLFKNKNVSINVELYFDATGHILPDSSSLKTDLELKYKQTADFSARGFMPSTTAYPFVLPNAGTHNENYIFGQCYYKASDGALFPLEVTVMLNKRLPDSRTSYVMTFLWSLNAGLAPETTQATLITSPFTFSYIREDD
notes: also called wild-type Ad3 fibers
In the case of B4, the binding result with soluble CD46 is given as “no binding”.

B5: Ad3-S4/Kn (ligand)
chain: GSLEENIKVNTPLTKSNHSINLPIGNGLQIEQNKLCSKLGNGLTFDSSNSIALKNNTLWTGPKPEANCIIEYGKQNPDSKLTLILVKNGGIVNGYVTLMGASDYVNTLFKNKNVSINVELYFDATGHILPDSSSLKTDLELKYKQTADFSARGFMPSTTAYPFVLPNAGTHNENYIFGQCYYKASDGALFPLEVTVMLNKRLPDSRTSYVMTFLWSLNAGLAPETTQATLITSPFTFSYIREDD
notes: as for B4
As for B5, the binding result in the test with soluble CD46 is on record as “no binding”.

B6: Ad3-S5/Kn (ligand)
chain: GSLQLKVGSGLTVDTTDGSLEENIKVNTPLTKSNHSINLPIGNGLQIEQNKLCSKLGNGLTFDSSNSIALKNNTLWTGPKPEANCIIEYGKQNPDSKLTLILVKNGGIVNGYVTLMGASDYVNTLFKNKNVSINVELYFDATGHILPDSSSLKTDLELKYKQTADFSARGFMPSTTAYPFVLPNAGTHNENYIFGQCYYKASDGALFPLEVTVMLNKRLPDSRTSYVMTFLWSLNAGLAPETTQATLITSPFTFSYIREDD
notes: as for B4
Regarding B6, in the test with soluble CD46, the binding result is on record as “no binding”.

B7: wt Ad3 fiber knob without dimerization domain (ligand)
chain: NKLCSKLGNGLTFDSSNSIALKNNTLWTGPKPEANCIIEYGKQNPDSKLTLILVKNGGIVNGYVTLMGASDYVNTLFKNKNVSINVELYFDATGHILPDSSSLKTDLELKYKQTADFSARGFMPSTTAYPFVLPNAGTHNENYIFGQCYYKASDGALFPLEVTVMLNKRLPDSRTSYVMTFLWSLNAGLAPETTQATLITSPFTFSYIREDD
notes: range 108-319; also called wt Ad3knob/noDD; wt Ad3 knob (noDD); not shown: N-terminal 6-His tag of pQE30 and the Gly/Ser linker encoded by primer P1
For the molecule B7, in test [2], the Kd turned out to be 10.1 µM, the off-rate constant (koff) was determined as 0.00572 s⁻¹ and the kon worked out at 527 M⁻¹ s⁻¹. Further, the dissociation constant Kd in test [3] worked out at 10 µM.

B8: Ad3-S3/Kn (ligand)
chain: HSINLPIGNGLQIEQNKLCSKLGNGLTFDSSNSIALKNNTLWTGPKPEANCIIEYGKQNPDSKLTLILVKNGGIVNGYVTLMGASDYVNTLFKNKNVSINVELYFDATGHILPDSSSLKTDLELKYKQTADFSARGFMPSTTAYPFVLPNAGTHNENYIFGQCYYKASDGALFPLEVTVMLNKRLPDSRTSYVMTFLWSLNAGLAPETTQATLITSPFTFSYIREDD
notes: as for B4
With B8, the binding result with soluble CD46 is reported as “no binding”.

B9: Ad3-S2/Kn (ligand)
chain: KLCSKLGNGLTFDSSNSIALKNNTLWTGPKPEANCIIEYGKQNPDSKLTLILVKNGGIVNGYVTLMGASDYVNTLFKNKNVSINVELYFDATGHILPDSSSLKTDLELKYKQTADFSARGFMPSTTAYPFVLPNAGTHNENYIFGQCYYKASDGALFPLEVTVMLNKRLPDSRTSYVMTFLWSLNAGLAPETTQATLITSPFTFSYIREDD
notes: as for B4
As for B9, the binding result with soluble CD46 was “no binding”.

The values are drawn from patent US20150246949A1, “Desmoglein 2 (DSG2) Binding Proteins and Uses Therefor” (UNIVERSITY OF WASHINGTON THROUGH ITS CENTER FOR …, priority 2012, published 2015).
